In patent publication US20220306739A1 (Janssen / Centocor, published 2022):
Like-named read-outs stand apart in the source and are kept apart here.

How the values were obtained:
[1] = target: T1, B cell maturation antigen (BCMA) (UniProt Q02223 1-184, limits assumed); assay: cell-based or functional assay
T1 sequence (looked up): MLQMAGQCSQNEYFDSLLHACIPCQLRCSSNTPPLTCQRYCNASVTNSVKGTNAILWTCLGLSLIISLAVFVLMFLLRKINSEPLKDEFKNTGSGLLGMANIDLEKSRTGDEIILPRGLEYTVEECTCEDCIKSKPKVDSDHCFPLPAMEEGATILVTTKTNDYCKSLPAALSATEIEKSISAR

[2] = target: T1, B cell maturation antigen (BCMA); assay: cell-based or functional assay; remark: listed apart in the source
[3] = target: T1, B cell maturation antigen (BCMA); assay: cell-based or functional assay; remark: listed apart in the source
[4] = target: T1, B cell maturation antigen (BCMA); assay: cell-based or functional assay; remark: listed apart in the source
[5] = target: T1, B cell maturation antigen (BCMA); assay: cell-based or functional assay; remark: listed apart in the source
CD33 [6] = target: T2, CD33 (human, UniProt P20138 18-364); assay: FACS binding to MOLM-13 cells (CD33 high), MFI
T2 construct: whole, on cells; also called CD33 on MOLM-13, Kasumi-1, OCI-AML-3 and Kasumi-3 cells

CD33 [7] = target: T2, CD33; assay: FACS binding to Kasumi-1 cells (CD33 med), MFI
CD33 [8] = target: T2, CD33; assay: FACS binding to OCI-AML-3 cells (CD33 low), MFI
CD123 [9] = target: T3, CD123 (human, UniProt P26951 19-378); assay: flow cytometry, % Binding on Kasumi-3 cells (CD123 expressing cell line)
T3 construct: whole, on cells; also called IL3RA; interleukin-3 receptor
From the text: (§1) Cells were visualized on forward and sideward scatter and doublets were excluded. No secondary antibody control was used to establish background fluorescence and to gate on specific population. Background value was subtracted from main samples to get specific binding value.

CD123 [10] = target: T3, CD123; assay: flow cytometry, % binding of bispecific antibody to Kasumi-3 cells (CD123 expressing)
From the text: as §1

CD123 [11] = target: T3, CD123; assay: flow cytometry, % Binding on Kasumi-3 cells (TAA expressing cell line); same graph as FIG. 30A
From the text: as §1

CD123 [12] = target: T3, CD123; assay: flow cytometry, % Binding; graph under the Kasumi-3 histogram, Kasumi-3 cells by legend paragraph 83
From the text: as §1

T2 sequence (P20138 18-364): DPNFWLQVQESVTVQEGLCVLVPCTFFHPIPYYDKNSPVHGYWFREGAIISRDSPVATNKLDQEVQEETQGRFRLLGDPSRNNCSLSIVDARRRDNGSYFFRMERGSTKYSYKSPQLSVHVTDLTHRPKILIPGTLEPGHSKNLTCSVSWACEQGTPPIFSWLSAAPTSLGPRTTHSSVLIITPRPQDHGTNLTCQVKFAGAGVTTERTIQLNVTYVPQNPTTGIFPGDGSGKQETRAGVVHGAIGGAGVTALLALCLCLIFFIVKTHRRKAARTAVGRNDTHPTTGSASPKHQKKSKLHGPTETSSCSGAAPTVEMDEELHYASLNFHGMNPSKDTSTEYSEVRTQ
T3 sequence (P26951 19-378): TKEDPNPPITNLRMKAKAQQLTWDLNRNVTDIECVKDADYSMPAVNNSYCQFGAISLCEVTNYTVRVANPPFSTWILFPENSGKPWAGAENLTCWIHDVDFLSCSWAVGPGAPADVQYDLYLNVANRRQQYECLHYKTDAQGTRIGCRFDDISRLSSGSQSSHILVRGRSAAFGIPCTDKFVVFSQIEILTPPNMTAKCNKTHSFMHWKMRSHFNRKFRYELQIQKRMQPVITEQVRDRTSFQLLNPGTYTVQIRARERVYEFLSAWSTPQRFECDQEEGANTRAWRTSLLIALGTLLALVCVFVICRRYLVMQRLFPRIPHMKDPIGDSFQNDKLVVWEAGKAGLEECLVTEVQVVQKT

B1: anti-TRGV9/anti-BCMA bispecific antibody BCV9B106 (B3) (bispecific antibody, human IgG1, kappa, L234A L235A)
scFv-Fc: DIQMTQSPASLSASVGETVTITCRASENIHNYLAWYQQKQGKSPQLLVYNAKTLADGVPSRFSGSGSGTQYSLKINSLQPEDFGNYYCQHFWSYPLTFGAGTKLELKGGSEGKSSGSGSESKSTGGSQGQMQQSGAELVKPGASVKLSCKTSGFTFSSNYISWLKQKPGQSLEWIAWIHGGTGGIGYNQKFTGKAQLTVDTSSTTAYMQFSSLTTEDSAIYYCARRGYGAWFAYWGQGTLVTVSAEPKSSDKTHTCPPCPAPEAAGGPSVFLFPPKPKDTLMISRTPEVTCVVVSVSHEDPEVKFNWYVDGVEVHNAKTKPREEQYNSTYRVVSVLTVLHQDWLNGKEYKCKVSNKALPAPIEKTISKAKGQPREPQVYVYPPSREEMTKNQVSLTCLVKGFYPSDIAVEWESNGQPENNYKTTPPVLDSDGSFALVSKLTVDKSRWQQGNVFSCSVMHEALHNHYTQKSLSLSPGK
heavy: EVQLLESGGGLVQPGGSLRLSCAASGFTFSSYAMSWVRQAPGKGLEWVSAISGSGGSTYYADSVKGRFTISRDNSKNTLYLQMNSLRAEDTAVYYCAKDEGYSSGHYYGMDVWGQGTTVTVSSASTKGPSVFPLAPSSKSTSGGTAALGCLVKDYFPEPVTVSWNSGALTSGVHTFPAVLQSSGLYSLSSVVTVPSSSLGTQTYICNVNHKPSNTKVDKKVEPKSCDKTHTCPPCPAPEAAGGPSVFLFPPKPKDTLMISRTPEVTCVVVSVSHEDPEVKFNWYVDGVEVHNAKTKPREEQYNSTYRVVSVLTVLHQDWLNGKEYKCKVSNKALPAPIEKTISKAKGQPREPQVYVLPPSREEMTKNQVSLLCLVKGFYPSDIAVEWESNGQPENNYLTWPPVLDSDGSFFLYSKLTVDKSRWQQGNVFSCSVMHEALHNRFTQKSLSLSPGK
light: EIVLTQSPGTLSLSPGERATLSCRASQSISSSFLTWYQQKPGQAPRLLIYGASSRATGIPDRFSGGGSGTDFTLTISRLEPEDFAVYYCQHYGSSPMYTFGQGTKLEIKRTVAAPSVFIFPPSDEQLKSGTASVVCLLNNFYPREAKVQWKVDNALQSGNSQESVTEQDSKDSTYSLSSTLTLSKADYEKHKVYACEVTHQGLSSPVTKSFNRGEC
- EC50 of γδ T-cell mediated cytotoxicity of H929 tumor cells [1]: 33.7 nM

B2: anti-TRGV9/anti-BCMA bispecific antibody (HC1: VG9B420-LH-scFv; HC2: BCMA-Fab (BCMB519-Fab)) (BCV9B71.001) (bispecific antibody, human IgG1, kappa, L234A L235A)
scFv: EIVMTQSPGTLSLSPGDRATLSCRASQSVASSYLAWYQQKPGQSPRLLIYGASSRATGIPDRFSGSGSGTDFTLTISRLEPEDFAVYYCQQYGSSPPYTFGQGTRLEIKGGSEGKSSGSGSESKSTGGSEVQLVESGGGLVKPGGSLRLSCSASGFTFSNYDMNWVRQAPGKGLEWVSSISSSSSYIYYADSVKGRFTISRDNAKNSLYLQMNSLRAEDTAVYHCARDVGVTTDYYYYGMDVWGQGTMVTVSSEPKSSDKTHTCPPCPAPEAAGGPSVFLFPPKPKDTLMISRTPEVTCVVVSVSHEDPEVKFNWYVDGVEVHNAKTKPREEQYNSTYRVVSVLTVLHQDWLNGKEYKCKVSNKALPAPIEKTISKAKGQPREPQVYVYPPSREEMTKNQVSLTCLVKGFYPSDIAVEWESNGQPENNYKTTPPVLDSDGSFALVSKLTVDKSRWQQGNVFSCSVMHEALHNHYTQKSLSLSPGK
heavy: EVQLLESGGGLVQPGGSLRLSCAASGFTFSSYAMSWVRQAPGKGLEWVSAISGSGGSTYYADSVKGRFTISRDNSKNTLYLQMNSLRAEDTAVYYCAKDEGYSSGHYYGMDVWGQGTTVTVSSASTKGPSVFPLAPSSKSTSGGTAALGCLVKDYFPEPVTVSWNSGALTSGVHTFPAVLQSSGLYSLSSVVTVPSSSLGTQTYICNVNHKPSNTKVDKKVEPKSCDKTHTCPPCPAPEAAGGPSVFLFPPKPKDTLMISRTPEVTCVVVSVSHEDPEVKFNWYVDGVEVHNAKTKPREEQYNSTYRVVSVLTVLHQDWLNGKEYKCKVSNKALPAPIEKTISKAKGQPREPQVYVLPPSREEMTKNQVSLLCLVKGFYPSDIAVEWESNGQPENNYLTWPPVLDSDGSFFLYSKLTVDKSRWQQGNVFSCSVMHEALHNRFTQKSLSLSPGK
light: EIVLTQSPGTLSLSPGERATLSCRASQSISSSFLTWYQQKPGQAPRLLIYGASSRATGIPDRFSGGGSGTDFTLTISRLEPEDFAVYYCQHYGSSPMYTFGQGTKLEIKRTVAAPSVFIFPPSDEQLKSGTASVVCLLNNFYPREAKVQWKVDNALQSGNSQESVTEQDSKDSTYSLSSTLTLSKADYEKHKVYACEVTHQGLSSPVTKSFNRGEC
- EC50 of γδ T-cell mediated cytotoxicity of H929 tumor cells [2]: 3.2 nM

B3: anti-TRGV9/anti-BCMA bispecific antibody (VG9SB10SC1087_P19_C03-Fab RF, BCMA-scFv (BCMB519-scFv)) (BCV9B103.001) (bispecific antibody, human IgG1, kappa, L234A L235A)
heavy: QVQLQESGPGLVKPSQTLSLTCTVSGGSISSGGSYWSWIRQHPGKGLEWIGYIYNSGSTYYNPSLKSRVSMSVDTSKNQFSLKLSSVTAADTAVYYCARDSNYEWFFDLWGPGTLVTVSSASTKGPSVFPLAPSSKSTSGGTAALGCLVKDYFPEPVTVSWNSGALTSGVHTFPAVLQSSGLYSLSSVVTVPSSSLGTQTYICNVNHKPSNTKVDKKVEPKSCDKTHTCPPCPAPEAAGGPSVFLFPPKPKDTLMISRTPEVTCVVVSVSHEDPEVKFNWYVDGVEVHNAKTKPREEQYNSTYRVVSVLTVLHQDWLNGKEYKCKVSNKALPAPIEKTISKAKGQPREPQVYVYPPSREEMTKNQVSLTCLVKGFYPSDIAVEWESNGQPENNYKTTPPVLDSDGSFALVSKLTVDKSRWQQGNVFSCSVMHEALHNRFTQKSLSLSPGK
light: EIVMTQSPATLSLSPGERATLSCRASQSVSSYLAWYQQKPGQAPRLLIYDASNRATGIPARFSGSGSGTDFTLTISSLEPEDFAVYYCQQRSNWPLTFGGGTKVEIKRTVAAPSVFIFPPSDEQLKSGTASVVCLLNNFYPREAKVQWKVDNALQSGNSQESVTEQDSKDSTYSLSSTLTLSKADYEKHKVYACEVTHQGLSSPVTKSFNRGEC
scFv: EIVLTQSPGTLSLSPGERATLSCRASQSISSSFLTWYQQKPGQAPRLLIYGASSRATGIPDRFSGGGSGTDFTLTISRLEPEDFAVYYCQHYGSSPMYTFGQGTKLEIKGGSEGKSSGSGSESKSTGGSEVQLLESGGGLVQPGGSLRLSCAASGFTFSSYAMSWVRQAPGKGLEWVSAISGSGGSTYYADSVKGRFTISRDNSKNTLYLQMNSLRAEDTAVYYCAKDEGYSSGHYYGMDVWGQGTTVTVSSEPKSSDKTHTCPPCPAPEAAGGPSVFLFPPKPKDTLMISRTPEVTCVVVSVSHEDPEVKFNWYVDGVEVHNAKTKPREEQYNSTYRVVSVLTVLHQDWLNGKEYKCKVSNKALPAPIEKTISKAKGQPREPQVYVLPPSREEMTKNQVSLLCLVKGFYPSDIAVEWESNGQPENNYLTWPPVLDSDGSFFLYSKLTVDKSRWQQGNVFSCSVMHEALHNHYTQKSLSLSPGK
- EC50 of γδ T-cell mediated cytotoxicity of H929 tumor cells [3]: 5.84 nM

B4: anti-TRGV9/anti-BCMA bispecific antibody (VG9SB10SC1087_P18_C12-Fab RF, BCMA-scFv (BCMB519-scFv)) (BCV9B101.001) (bispecific antibody, human IgG1, kappa, L234A L235A)
heavy: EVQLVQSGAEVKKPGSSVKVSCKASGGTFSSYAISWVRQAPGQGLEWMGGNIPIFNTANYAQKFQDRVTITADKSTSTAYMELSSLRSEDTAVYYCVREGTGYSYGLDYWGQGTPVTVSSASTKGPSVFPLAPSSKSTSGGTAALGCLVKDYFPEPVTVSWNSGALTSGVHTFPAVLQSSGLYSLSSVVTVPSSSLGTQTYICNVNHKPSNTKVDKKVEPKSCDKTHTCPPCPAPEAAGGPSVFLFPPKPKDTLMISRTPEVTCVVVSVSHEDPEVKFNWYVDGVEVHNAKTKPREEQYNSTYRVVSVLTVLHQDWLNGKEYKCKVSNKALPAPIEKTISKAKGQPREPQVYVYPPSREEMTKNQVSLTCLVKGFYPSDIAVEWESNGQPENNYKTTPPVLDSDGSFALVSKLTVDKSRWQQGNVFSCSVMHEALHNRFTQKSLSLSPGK
light: EIVMTQSPLSSPVTLGQPASISCRSSQSLIHSDGNTYLSWLQQRPGQPPRLLIYKISNRFSGVPDRFSGSGAGTDFTLKISRVEAEDVGIYYCMQAKQFPITFGQGTKVDIKRTVAAPSVFIFPPSDEQLKSGTASVVCLLNNFYPREAKVQWKVDNALQSGNSQESVTEQDSKDSTYSLSSTLTLSKADYEKHKVYACEVTHQGLSSPVTKSFNRGEC
scFv: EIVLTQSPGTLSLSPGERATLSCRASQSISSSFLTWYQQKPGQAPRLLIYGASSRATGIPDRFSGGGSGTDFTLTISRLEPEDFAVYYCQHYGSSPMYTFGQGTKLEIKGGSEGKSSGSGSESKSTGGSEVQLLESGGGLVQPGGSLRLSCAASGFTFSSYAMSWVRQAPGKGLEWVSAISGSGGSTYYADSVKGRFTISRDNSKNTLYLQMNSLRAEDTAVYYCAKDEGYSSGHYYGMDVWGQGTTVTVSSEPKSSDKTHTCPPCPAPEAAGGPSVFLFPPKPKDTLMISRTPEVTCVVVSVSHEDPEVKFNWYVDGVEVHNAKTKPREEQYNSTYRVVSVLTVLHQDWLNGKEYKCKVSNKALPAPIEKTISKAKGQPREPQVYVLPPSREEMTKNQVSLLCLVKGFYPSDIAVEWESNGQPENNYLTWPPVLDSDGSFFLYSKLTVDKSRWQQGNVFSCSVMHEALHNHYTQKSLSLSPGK
- EC50 of γδ T-cell mediated cytotoxicity of H929 tumor cells [4]: 2.65 nM

B5: anti-TRGV9/anti-BCMA bispecific antibody (VG9SB10SC1087_P18_D08-Fab RF, BCMA-scFv (BCMB519-scFv)) (BCV9B100.001) (bispecific antibody, human IgG1, kappa, L234A L235A)
heavy: EVQLVQSGAEVKKPGSSVKVSCKASGDTFNNYAISWVRQAPGQGLEWMGGIIPFFGTPDYAQKFQGRVTITADKSTSTAYMELSGLRSEDTAVYYCARPGSGSPDYYYYDMDVWGQGTTVTVSSASTKGPSVFPLAPSSKSTSGGTAALGCLVKDYFPEPVTVSWNSGALTSGVHTFPAVLQSSGLYSLSSVVTVPSSSLGTQTYICNVNHKPSNTKVDKKVEPKSCDKTHTCPPCPAPEAAGGPSVFLFPPKPKDTLMISRTPEVTCVVVSVSHEDPEVKFNWYVDGVEVHNAKTKPREEQYNSTYRVVSVLTVLHQDWLNGKEYKCKVSNKALPAPIEKTISKAKGQPREPQVYVYPPSREEMTKNQVSLTCLVKGFYPSDIAVEWESNGQPENNYKTTPPVLDSDGSFALVSKLTVDKSRWQQGNVFSCSVMHEALHNRFTQKSLSLSPGK
light: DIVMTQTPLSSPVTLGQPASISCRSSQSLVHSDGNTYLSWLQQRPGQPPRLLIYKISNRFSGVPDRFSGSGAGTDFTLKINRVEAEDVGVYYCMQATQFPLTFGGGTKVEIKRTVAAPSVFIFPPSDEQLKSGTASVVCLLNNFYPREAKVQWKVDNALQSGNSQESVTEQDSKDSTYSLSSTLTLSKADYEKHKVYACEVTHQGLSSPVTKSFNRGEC
scFv: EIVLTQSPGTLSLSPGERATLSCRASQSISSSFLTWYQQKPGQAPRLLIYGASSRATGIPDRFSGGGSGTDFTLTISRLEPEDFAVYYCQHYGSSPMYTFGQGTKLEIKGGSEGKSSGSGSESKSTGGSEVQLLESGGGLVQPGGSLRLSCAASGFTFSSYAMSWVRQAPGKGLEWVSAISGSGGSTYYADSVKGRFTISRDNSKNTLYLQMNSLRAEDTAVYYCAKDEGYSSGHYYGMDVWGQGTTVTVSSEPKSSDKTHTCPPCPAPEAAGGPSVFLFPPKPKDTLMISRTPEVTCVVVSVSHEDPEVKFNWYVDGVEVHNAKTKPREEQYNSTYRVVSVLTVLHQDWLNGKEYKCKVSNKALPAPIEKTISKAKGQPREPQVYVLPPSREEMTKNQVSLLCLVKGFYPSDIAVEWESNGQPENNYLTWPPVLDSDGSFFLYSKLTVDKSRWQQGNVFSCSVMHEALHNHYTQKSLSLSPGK
- EC50 of γδ T-cell mediated cytotoxicity of H929 tumor cells [5]: 0.81 nM

B6: anti-CD33 antibody (clone C33B904) (antibody, V domains shown)
VH: EVQLVESGGGLVQPGRSLRLSCAASGFTFDDYAMHWVRQAPGKGLEWVSGIGWSGGSIVYADSVKGRFTISRDNAKNSLYLQMNSLRAEDTALYYCAKDSPYGDFFDYWGQGTLVTVSS
VL: DIVMTQSPDSLAVSLGERATINCKSSQTVFYSSNNKNYLAWYQQKPGQPPKLLISWASTRKSGVPDRFSGSGSGTDFTLTVSSLQAEDVAVYYCQHYYSTPYTFGQGTKLEIK
- EC50 (CD33 [6]): ~134 nM
- EC50 (CD33 [7]): 82.2 nM
- EC50 (CD33 [8]): 16.4 nM

B7: VG1 (anti-TRGV9/anti-CD123 bispecific antibody) (bispecific antibody, human IgG4 S228P, kappa, F234A L235A)
heavy 1: EVQLQQSGAELARPGASVKLSCKASGFTFTDHYINWVKQRTGQGLEWIGQIYPGDGNTYYNQKFKGKATLTADKSSSTAYMQLSSLTSEDSAVYFCAPNYGDYTIDFWGQGTSVTVSSASTKGPSVFPLAPCSRSTSESTAALGCLVKDYFPEPVTVSWNSGALTSGVHTFPAVLQSSGLYSLSSVVTVPSSSLGTKTYTCNVDHKPSNTKVDKRVESKYGPPCPPCPAPEAAGGPSVFLFPPKPKDTLMISRTPEVTCVVVDVSQEDPEVQFNWYVDGVEVHNAKTKPREEQFNSTYRVVSVLTVLHQDWLNGKEYKCKVSNKGLPSSIEKTISKAKGQPREPQVYTLPPSQEEMTKNQVSLSCAVKGFYPSDIAVEWESNGQPENNYKTTPPVLDSDGSFFLVSRLTVDKSRWQEGNVFSCSVMHEALHNRFTQKSLSLSLGK
light 1: DIVMSQSPSSLAVSVGEKVTMSCKSSQSLLYSSNQKNYLAWYQQKPGQSPKLLIYWASTRESGVPDRFTGSGSGTDFTLTISSVKAEDLAVYYCQQYYRYHTFGTGTKLEIKRTVAAPSVFIFPPSDEQLKSGTASVVCLLNNFYPREAKVQWKVDNALQSGNSQESVTEQDSKDSTYSLSSTLTLSKADYEKHKVYACEVTHQGLSSPVTKSFNRGEC
heavy 2: EVQLVQSGAEVKKPGESLKISCKGSGYSFTSYWISWVRQMPGKGLEWMGIIDPSDSDTRYSPSFQGQVTISADKSISTAYLQWSSLKASDTAMYYCARGDGSTDLDYWGQGTLVTVSSASTKGPSVFPLAPCSRSTSESTAALGCLVKDYFPEPVTVSWNSGALTSGVHTFPAVLQSSGLYSLSSVVTVPSSSLGTKTYTCNVDHKPSNTKVDKRVESKYGPPCPPCPAPEAAGGPSVFLFPPKPKDTLMISRTPEVTCVVVDVSQEDPEVQFNWYVDGVEVHNAKTKPREEQFNSTYRVVSVLTVLHQDWLNGKEYKCKVSNKGLPSSIEKTISKAKGQPREPQVYTLPPSQEEMTKNQVSLWCLVKGFYPSDIAVEWESNGQPENNYKTTPPVLDSDGSFFLYSRLTVDKSRWQEGNVFSCSVMHEALHNHYTQKSLSLSLGK
light 2: EIVLTQSPGTLSLSPGERATLSCRASQSVSSSYLAWYQQKPGQAPRLLIYGASSRATGIPDRFSGSGSGTDFTLTISRLEPEDFAVYYCQQDYGFPWTFGQGTKVEIKRTVAAPSVFIFPPSDEQLKSGTASVVCLLNNFYPREAKVQWKVDNALQSGNSQESVTEQDSKDSTYSLSSTLTLSKADYEKHKVYACEVTHQGLSSPVTKSFNRGEC
notes: Full-length human IgG4 in knob-into-hole format; also called anti-TRGV9×CD123; Vγ9/CD123 bispecific
- EC50 (CD123 [9]): 0.43 nM
- EC50 (CD123 [10]): 0.354 nM
- EC50 (read off the curve) (CD123 [10]): ~0.05 µg/mL
- EC50 (CD123 [11]): 0.43 nM
- EC50 (CD123 [12]): 0.354 nM
